Reference: US20140325692, “BLUE-LIGHT INDUCIBLE SYSTEM FOR GENE EXPRESSION” (BOARD OF REGENTS, THE UNIVERSITY OF TEXAS SYSTEM, published 2014)

T1: EL222 (14-222) wild type (Erythrobacter litoralis, UniProt Q2NB98 SEQ:1-209)
T1 chain: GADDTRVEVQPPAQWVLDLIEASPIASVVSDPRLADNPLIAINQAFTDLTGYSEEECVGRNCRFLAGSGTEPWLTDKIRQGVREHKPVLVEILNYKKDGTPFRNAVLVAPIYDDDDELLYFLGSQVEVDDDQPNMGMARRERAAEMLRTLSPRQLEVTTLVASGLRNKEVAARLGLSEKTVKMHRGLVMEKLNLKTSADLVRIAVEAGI

B1: Clone-22 (dsDNA)
DNA 1: TATAGGGCTTTAGTCTGTATGTGGGATGTGTGT
DNA 2: ACACACATCCCACATACAGACTAAAGCCCTATA
B2: Clone-1 (dsDNA)
DNA 1: TCTACGTTATAGGTAGCCTTTAGTCCATGCTGATTCGTTTTCAAC
DNA 2: GTTGAAAACGAATCAGCATGGACTAAAGGCTACCTATAACGTAGA
B3: Clone-77 (dsDNA)
DNA 1: CAGATACATGCTTTAGTACGTATATTCGATGTC
DNA 2: GACATCGAATATACGTACTAAAGCATGTATCTG
B4: C1-2 (dsDNA)
DNA 1: TAGGTAGCCTTTAGTCCATG
DNA 2: CATGGACTAAAGGCTACCTA
B5: Clone-2 (dsDNA)
DNA 1: AGCTAGGCTTTTGGTCTGTATAGCTGTCTTATA
DNA 2: TATAAGACAGCTATACAGACCAAAAGCCTAGCT
B6: Clone-3 (dsDNA)
DNA 1: TAGACTTAAGTCTAGTACACAAGTTTTCCAGGG
DNA 2: CCCTGGAAAACTTGTGTACTAGACTTAAGTCTA
B7: Clone-78 (dsDNA)
DNA 1: GCCCTAAGACTGTATCTTATTCGTGAGTTTTAA
DNA 2: TTAAAACTCACGAATAAGATACAGTCTTAGGGC
B8: Clone-53 (dsDNA)
DNA 1: CATGGCCTAAGGACTGTAAGTACTATTAAATAC
DNA 2: GTATTTAATAGTACTTACAGTCCTTAGGCCATG

Legend:
Conditions in all cases: tags: His6-Gβ1 (pHis6-Gβ1-Parallel1); label: 5'-32P
EL222 (14-222) wild type [1] = biological target: T1, EL222 (14-222) wild type; test: EMSA; light, 4 C, 3 mM MgCl2; 33 bp randomized region printed
Method: (§1) DNA pools derived from each SELEX cycle were PCR amplified as described previously in the SELEX procedure. Complementary oligonucleotides for each individual SELEX-derived clone sequence were chemically synthesized (Sigma), heated to 95-100° C. for 5 min and left to cool to room temperature to anneal the oligonucleotides. DNAs were 5′-end labeled in a 50 μl reaction containing (final concentrations) 68 nM DNA substrate, 70 mM Tris-Cl pH 7.6, 10 mM MgCl₂, 5 mM DTT, 0.6 μCi ATP [γ-³²P] (Perkin Elmer, cat. no. BLU502Z500UC), and 0.2 U PNK (New England Biolabs Inc.). The reaction was incubated for 30 min at 37° C., followed by a 20 min incubation at 65° C. to heat inactivate the enzyme. The ³²P-labeled DNA was purified from the unincorporated ATP [γ-³²P] using Illustra ProbeQuant G-50 micro-columns (GE Healthcare). Approximately 13.6 nM radiolabeled DNA was incubated with varying concentrations of WT-EL222 in the same binding buffer used for SELEX procedure for 25 min at 4° C. with continuous illumination with a white LED light. Reactions were analyzed on a 5% native gel (Acrylamide/Bis 29:1) and run in TBE buffer at 150 V for 1.5 hr at 4° C. The gel was exposed to a PhosphorImaging plate and visualized using FujiFilm FLA-5100 imaging system.

EL222 (14-222) wild type [2] = biological target: T1, EL222 (14-222) wild type; test: EMSA; white LED light, 4 C, 10 mM Tris pH 8.0, 80 mM NaCl, 3 mM MgCl2
Method: as §1

EL222 (14-222) wild type [3] = biological target: T1, EL222 (14-222) wild type; test: EMSA; light, 4 C, 3 mM MgCl2
Method: as §1

| Binder | binding result (EL222 (14-222) wild type [1]) | also measured |
| --- | --- | --- |
| B1 | binds | – |
| B2 | – | binding result (EL222 (14-222) wild type [2]): binds |
| B3 | binds | – |
| B4 | – | binding result (EL222 (14-222) wild type [3]): binds |
| B5 | binds | – |
| B6 | binds | – |
| B7 | binds | – |
| B8 | binds | – |
